# From patent US20260176342A1 (CITRYLL B V, published 2026)
# Residue numbers refer to the chain shown, from its start. Square brackets hold non-standard residues; d marks the D form. Ends that are not written are not given here. Cit = NC(=O)NCCC[C@H](N)C(=O)O
# T1: citrullinated histone 4-derived peptide (SEQ ID NO: 20), C-terminal biotin (human, citrulline at position 3; biotin at the C-terminus)
# T1 construct: Immobilized on streptavidin biosensors (Octet RED96); also called H4-derived peptide; N-terminal histone 4 peptide
# T1 peptide: SGXGKGGKGLGK
# T2: citrullinated histone 2A-derived peptide (SEQ ID NO: 18), C-terminal biotin (human)
# T2 construct: Captured by its biotin on NeutrAvidin plates (ELISA) or streptavidin biosensors (Octet); also called histone-derived peptide; citrullinated H2A-derived peptide
# T2 peptide: SG[Cit]GKQGGKARA-biotin
# B1: hMQ22.101HC7/LC42 (antibody, V domains shown)
# VH: QVQLVQSGAEVKKPGSSVKVSCKASGYTFTNYGMHWVRQAPGQGLEWMGWINTYSGEATYAQKFQGRVTITADESTSTAYMELSSLRSEDTAVYYCLRGYTYQSFDEGGDYWGQGTLVTVSS
# VL: DVVMTQSPLSLPVTLGQPASISCRSSQSLLDNDGKTYLNWFQQRPGQSPRRLIYLVSKLDSGVPDRFSGSGSGTDFTLKISRVEAEDVGVYYCWQGTHFPYTFGQGTKLEIK
# notes: also called isomerization mutant; heavy chain hVH22.101HC7 with light chain hVL22.101LC42
# B2: hMQ22.101HC7/LC27 (antibody, V domains shown)
# VH: B1 VH
# VL: B1 VL with N32T, G34A
# notes: also called isomerization mutant; heavy chain hVH22.101HC7 with light chain hVL22.101LC27
# B3: hMQ22.101HC9/LC17 (antibody, V domains shown)
# VH: RIQLVQSGAEVKKPGASVKVSCKASGYTFTNYGMHWVRQAPGQGLEWMGWINTYSGEATYVDDFQGRVTMTRDTSISTAYMELSRLRSDDTAVYYCLRGYTYQSFDEGGDYWGQGTLVTVSS
# VL: B1 VL with N32T
# notes: also called isomerization mutant; heavy chain hVH22.101HC9 with light chain hVL22.101LC17
# B4: hMQ22.101HC8/LC42 (antibody, V domains shown)
# VH: B1 VH with A61V, Q62D, K63D
# VL: B1 VL
# notes: also called isomerization mutant; heavy chain hVH22.101HC8 with light chain hVL22.101LC42
# B5: hMQ22.101HC9/LC21 (antibody, V domains shown)
# VH: B3 VH
# VL: B1 VL with N32S, G34A
# notes: also called isomerization mutant; heavy chain hVH22.101HC9 with light chain hVL22.101LC21
# B6: hMQ22.101j/LC21 (antibody, V domains shown)
# VH: B3 VH with R1Q, I2V, V61A, D62Q, D63K
# VL: B1 VL with N32S, G34A
# notes: also called isomerization mutant; heavy chain hVH22.101j with light chain hVL22.101LC21
# B7: hMQ22.101HC8/LC17 (antibody, V domains shown)
# VH: B1 VH with A61V, Q62D, K63D
# VL: B1 VL with N32T
# notes: also called isomerization mutant; heavy chain hVH22.101HC8 with light chain hVL22.101LC17
# B8: hMQ22.101j/LC42 (antibody, V domains shown)
# VH: B3 VH with R1Q, I2V, V61A, D62Q, D63K
# VL: B1 VL
# notes: also called isomerization mutant; heavy chain hVH22.101j with light chain hVL22.101LC42
# B9: hMQ22.101HC8/LC41 (antibody, V domains shown)
# VH: B1 VH with A61V, Q62D, K63D
# VL: B1 VL with N32A
# notes: also called isomerization mutant; heavy chain hVH22.101HC8 with light chain hVL22.101LC41
# B10: hMQ22.101HC8/LC27 (antibody, V domains shown)
# VH: B1 VH with A61V, Q62D, K63D
# VL: B1 VL with N32T, G34A
# notes: also called isomerization mutant; heavy chain hVH22.101HC8 with light chain hVL22.101LC27
# B11: hMQ22.101f/LC17 (antibody, V domains shown)
# VH: B3 VH with V61A, D62Q, D63K
# VL: B1 VL with N32T
# notes: also called isomerization mutant; heavy chain hVH22.101f with light chain hVL22.101LC17
# B12: hMQ22.101f/LC42 (antibody, V domains shown)
# VH: B3 VH with V61A, D62Q, D63K
# VL: B1 VL
# notes: also called isomerization mutant; heavy chain hVH22.101f with light chain hVL22.101LC42
# B13: hMQ22.101f/LC41 (antibody, V domains shown)
# VH: B3 VH with V61A, D62Q, D63K
# VL: B1 VL with N32A
# notes: also called development candidate; isomerization mutant
# B14: hMQ22.101f/LC27 (antibody, V domains shown)
# VH: B3 VH with V61A, D62Q, D63K
# VL: B1 VL with N32T, G34A
# notes: also called isomerization mutant; heavy chain hVH22.101f with light chain hVL22.101LC27
# Target: T1, citrullinated histone 4-derived peptide …
# Assay: Octet RED96 off-rate screen, biotinylated peptide on streptavidin biosensors, antibody 72 nM, 30 C
# Protocol: (§1) Off-rate screening of the isomerization-mutated antibodies was performed on an Octet® RED96 (biomolecule detection system) instrument (Pall ForteBio). All measurements were performed at 30° C. Streptavidin (SA) biosensors were first washed for 50 sec with PBS. 1 μg/ml N-terminal histone 2A (SEQ ID NO: 18) and histone 4 (SEQ ID NO: 20) peptides, containing both a citrulline at position 3 and a biotin at the C-terminus, were immobilized on SA biosensors for 200 sec, washed with PBS for 50 sec and excess reactive streptavidin molecules blocked with EZ-Link™ biocytin for 200 sec. After two additional 50 sec wash steps in PBS, antibodies at a concentration of 72 nM diluted in PBS were allowed to bind to the biosensors for 200 sec. Sensors were subsequently placed in PBS for 4000 sec in order to measure their dissociation rates.
# (§2) Background signals generated with non-coated biosensors, which have been exposed to the various antibodies as well as signals from coated biosensors that have not been exposed to the various antibodies, have been subtracted before dissociation curves for each antibody were plotted. Both histone 2A and histone 4 dissociation rates constants (kdis×E-07 (1/s)) for each antibody were calculated applying a 1:1 interaction model (fitting local, full) using ForteBio data analysis software 8.1.
row,Binder,binding result
1,B1,binds
2,B2,binds
3,B3,binds
4,B4,binds
5,B5,binds
6,B6,binds
7,B7,binds
8,B8,binds
9,B9,binds
10,B10,binds

# Target: T2, citrullinated histone 2A-derived …
# Assay: as above
# Protocol: as §1, §2
row,Binder,binding result
1,B1,binds
2,B2,binds
3,B3,binds
4,B4,binds
5,B5,binds
6,B6,binds
7,B7,binds
8,B8,binds
9,B9,binds
10,B10,binds

# Target: T2, citrullinated histone 2A-derived …
# Assay: CMC ELISA, biotinylated peptide on NeutrAvidin-coated plate, anti-human-HRP, OD 450 nm, interpolated on the hMQ22.101f/g calibration curve
# Protocol: hMQ22.101j/e samples from week 0, 2, 4, 6 and 8, and hMQ22.101f/g samples from week 0, 3 and 6 were subjected to an in house-validated CMC ELISA. 96-well ELISA plates were coated with NeutrAvidin™ ([…]) by overnight incubation at 4° C. Wells were washed 5 times with PBS-Tween® (polysorbate) 20 (PBS-T) and blocked by a 2 hour incubation with PBS-T+1% Bovine serum albumin (BSA) at room temperature (RT). After 5 more washes with PBS-T, wells were incubated for 1 hour at RT with a histone-derived peptide (SEQ ID NO 18: SGXGKQGGKARA), containing a citrulline (X) at position 3 and a C-terminal biotin (40 ng/well) in PBS-T+0.2% BSA. After another 5 washes with PBS-T, a calibration curve made from a reference lot of hMQ22.101j/e or hMQ22.101f/g by adding to the wells starting at […] and further diluted at a 1:1 ratio until reaching a concentration of 0.66 ng/ml in PBS-T+0.2% BSA. Spiked quality control (QC) samples made from the same reference lot hMQ22.101j/e or hMQ22.101f/g at higher (HQC, 250 ng/ml), middle (MQC, 50 ng/ml), lower (LQC 3.75 ng/ml) and lower limit quality control (LLQC, 1.25 ng/ml) were diluted in PBS-T+0.2% BSA and added to the plate as well. These QC samples were used in order to validate the ELISA results.
# Finally, accelerated stability samples that had been incubated for 0, 2, 3, 4, 6 and 8 weeks at 37° C. were added to the same plate at a concentration of 40 ng/ml in PBS-T+0.2% BSA and incubated for 2 hours at RT. Wells were washed 5 times with PBS-T and incubated with rabbit anti-human-HRP antibody (1:12.000 in PBS-T+0.2% BSA) for 1 hour at RT followed by 3 washes with PBS-T and 3 washes with PBS. Wells were incubated 10 min with TMB substrate before stopping the reaction with 2 M H₂SO₄ after which the optical density was measured at wavelength of 450 nm. A sigmoidal calibration curve was plotted and fitted using the values from the serial diluted reference antibody. Concentrations of the QC samples and accelerated stability samples were recalculated using the equation from the sigmoidal fitted curve.
row,Binder,binding result
1,B11,binds
2,B12,binds
3,B13,binds
4,B14,binds
